Consider three substances from article PMC8068644.

A short description of this series: immunoblot, full-length as % of total β1AR, CHO-Pro5. Particulars: glycan lost. On the technique in general: Immunoblotting shows a protein as a band on a membrane.

As to β1-adrenergic receptor (β1AR): S37A, the other: N-terminal proteolytic cleavage, other: decrease in full-length β1AR (control: WT-β1AR) was determined as 21.7%.
The substance β1-adrenergic receptor (β1AR): S41A yielded an other: N-terminal proteolytic cleavage, other: decrease in full-length β1AR (control: WT-β1AR) of 56.8%.
For the substance “β1-adrenergic receptor (β1AR): S41A in 31H32A/52A53A backbone”, the other: N-terminal proteolytic cleavage, other: decrease in full-length β1AR (control: 31H32A/52A53A-β1AR) was found to be 69.7%.
